How the values were obtained:
[1] = target: T1, human CD103 (integrin Alpha-E) / human integrin Beta-7 heterodimer on cells (human, UniProt P38570 19-1179; P26010 20-798); experiment: flow cytometry competition on CD103+CD8+ T cells; pre-incubation with unlabeled BERACT; table n=1
T1 construct: the assay field tells which cells; also called hCD103/hBeta7; CHO.K1-hCD103/hBeta7
Description: (§1) Percentage binding of fluorescently labeled mAbs was determined using flow cytometry. Maximum binding was set at 100%.
(§2) Percentage binding of fluorescently labeled mAbs was determined using flow cytometry. Maximum binding was set at 100%

[2] = target: T2, human integrin Alpha-4 / human integrin Beta-7 heterodimer on CHO-K1 cells (human, UniProt P13612 34-1032; P26010 20-798); experiment: cell ELISA on CHO.K1-humanAlpha4/beta7 cells, abs 450-610
T2 construct: Used as the control for reactivity with hBeta7; also called hAlpha4/hBeta7; CHO.K1-hAlpha4/hBeta7

[3] = target: T1, human CD103 (integrin Alpha-E) / human …; experiment: flow cytometry competition on CD103+CD8+ T cells; pre-incubation with unlabeled 01A; table n=2
Description: as §1, §2

[4] = target: T1, human CD103 (integrin Alpha-E) / human …; experiment: flow cytometry competition on CD103+CD8+ T cells; pre-incubation with unlabeled 01A; table n=1
Description: as §1, §2

[5] = target: T1, human CD103 (integrin Alpha-E) / human …; experiment: cell ELISA on CHO.K1-hCD103/beta7 cells, OD450-620, upper left panel
[6] = target: T1, human CD103 (integrin Alpha-E) / human …; experiment: flow cytometry competition on CD103+CD8+ T cells; pre-incubation with unlabeled 02A; table n=1
Description: as §1, §2

[7] = target: T1, human CD103 (integrin Alpha-E) / human …; experiment: flow cytometry competition on CD103+CD8+ T cells; pre-incubation with unlabeled IgG (f2); table n=2
Description: as §1, §2

[8] = target: T1, human CD103 (integrin Alpha-E) / human …; experiment: flow cytometry competition on CD103+CD8+ T cells; pre-incubation with unlabeled MCA708 (f4); table n=1
Description: as §1, §2

[9] = target: T1, human CD103 (integrin Alpha-E) / human …; experiment: flow cytometry competition on CD103+CD8+ T cells; pre-incubation with unlabeled 07A; table n=1
Description: as §2

[10] = target: T1, human CD103 (integrin Alpha-E) / human …; experiment: flow cytometry competition on CD103+CD8+ T cells; pre-incubation with unlabeled MCA708 (f4); table n=2
Description: as §1, §2

[11] = target: T1, human CD103 (integrin Alpha-E) / human …; experiment: flow cytometry competition on CD103+CD8+ T cells; pre-incubation with unlabeled 06A; table n=1
Description: as §1, §2

[12] = target: T1, human CD103 (integrin Alpha-E) / human …; experiment: cell ELISA on CHO.K1-humanCD103/beta7 cells, abs 450-610

T2 sequence (P13612 34-1032 limits assumed, chain 1 of 2): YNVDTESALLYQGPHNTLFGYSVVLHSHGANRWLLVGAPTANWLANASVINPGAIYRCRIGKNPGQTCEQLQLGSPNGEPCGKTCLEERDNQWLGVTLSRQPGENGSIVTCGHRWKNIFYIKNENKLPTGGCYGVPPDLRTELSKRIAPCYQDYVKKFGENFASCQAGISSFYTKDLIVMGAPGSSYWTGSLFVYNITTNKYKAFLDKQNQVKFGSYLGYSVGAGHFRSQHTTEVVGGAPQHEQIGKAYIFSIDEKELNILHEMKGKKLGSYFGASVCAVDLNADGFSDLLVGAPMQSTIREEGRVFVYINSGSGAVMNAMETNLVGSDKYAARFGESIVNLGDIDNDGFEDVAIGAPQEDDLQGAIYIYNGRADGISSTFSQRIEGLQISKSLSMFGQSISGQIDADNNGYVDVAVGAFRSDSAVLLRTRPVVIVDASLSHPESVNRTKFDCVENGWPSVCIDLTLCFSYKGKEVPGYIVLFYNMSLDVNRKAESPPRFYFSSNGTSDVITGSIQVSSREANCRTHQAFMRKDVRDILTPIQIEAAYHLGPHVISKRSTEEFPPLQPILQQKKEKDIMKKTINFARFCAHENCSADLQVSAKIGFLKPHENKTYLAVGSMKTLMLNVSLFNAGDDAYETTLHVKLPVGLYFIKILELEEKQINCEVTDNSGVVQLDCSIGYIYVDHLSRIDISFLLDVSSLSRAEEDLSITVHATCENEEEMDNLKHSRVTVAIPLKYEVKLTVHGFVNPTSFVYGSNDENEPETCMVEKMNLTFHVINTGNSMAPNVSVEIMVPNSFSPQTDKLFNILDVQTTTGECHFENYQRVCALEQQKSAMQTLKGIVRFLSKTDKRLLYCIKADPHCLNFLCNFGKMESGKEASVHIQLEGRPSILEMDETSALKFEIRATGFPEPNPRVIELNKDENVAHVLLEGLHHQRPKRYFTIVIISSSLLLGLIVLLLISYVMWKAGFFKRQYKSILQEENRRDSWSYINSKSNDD
T2 sequence (P26010 20-798 limits assumed, chain 2 of 2): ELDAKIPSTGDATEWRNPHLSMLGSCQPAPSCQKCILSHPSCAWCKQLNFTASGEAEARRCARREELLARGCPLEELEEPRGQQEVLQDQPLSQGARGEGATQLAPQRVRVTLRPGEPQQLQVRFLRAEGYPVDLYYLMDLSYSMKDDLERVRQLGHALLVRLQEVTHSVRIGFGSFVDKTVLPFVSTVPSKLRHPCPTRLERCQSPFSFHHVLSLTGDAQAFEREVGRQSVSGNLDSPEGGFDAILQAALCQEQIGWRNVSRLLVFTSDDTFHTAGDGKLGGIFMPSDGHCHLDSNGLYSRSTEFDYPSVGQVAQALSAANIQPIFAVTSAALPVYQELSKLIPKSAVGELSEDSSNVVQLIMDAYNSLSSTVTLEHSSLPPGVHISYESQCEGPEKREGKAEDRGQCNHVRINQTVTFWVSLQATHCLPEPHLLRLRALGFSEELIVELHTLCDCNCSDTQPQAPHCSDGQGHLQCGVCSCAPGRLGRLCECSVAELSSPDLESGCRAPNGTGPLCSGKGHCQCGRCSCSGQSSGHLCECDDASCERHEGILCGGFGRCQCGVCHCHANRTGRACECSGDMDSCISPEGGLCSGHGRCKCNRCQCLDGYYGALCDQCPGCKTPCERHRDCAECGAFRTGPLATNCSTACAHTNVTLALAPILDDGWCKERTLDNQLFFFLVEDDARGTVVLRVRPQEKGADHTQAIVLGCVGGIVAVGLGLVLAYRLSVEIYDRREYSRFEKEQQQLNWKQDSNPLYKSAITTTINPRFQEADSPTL
T1 sequence (P38570 19-1179 limits assumed, chain 1 of 2): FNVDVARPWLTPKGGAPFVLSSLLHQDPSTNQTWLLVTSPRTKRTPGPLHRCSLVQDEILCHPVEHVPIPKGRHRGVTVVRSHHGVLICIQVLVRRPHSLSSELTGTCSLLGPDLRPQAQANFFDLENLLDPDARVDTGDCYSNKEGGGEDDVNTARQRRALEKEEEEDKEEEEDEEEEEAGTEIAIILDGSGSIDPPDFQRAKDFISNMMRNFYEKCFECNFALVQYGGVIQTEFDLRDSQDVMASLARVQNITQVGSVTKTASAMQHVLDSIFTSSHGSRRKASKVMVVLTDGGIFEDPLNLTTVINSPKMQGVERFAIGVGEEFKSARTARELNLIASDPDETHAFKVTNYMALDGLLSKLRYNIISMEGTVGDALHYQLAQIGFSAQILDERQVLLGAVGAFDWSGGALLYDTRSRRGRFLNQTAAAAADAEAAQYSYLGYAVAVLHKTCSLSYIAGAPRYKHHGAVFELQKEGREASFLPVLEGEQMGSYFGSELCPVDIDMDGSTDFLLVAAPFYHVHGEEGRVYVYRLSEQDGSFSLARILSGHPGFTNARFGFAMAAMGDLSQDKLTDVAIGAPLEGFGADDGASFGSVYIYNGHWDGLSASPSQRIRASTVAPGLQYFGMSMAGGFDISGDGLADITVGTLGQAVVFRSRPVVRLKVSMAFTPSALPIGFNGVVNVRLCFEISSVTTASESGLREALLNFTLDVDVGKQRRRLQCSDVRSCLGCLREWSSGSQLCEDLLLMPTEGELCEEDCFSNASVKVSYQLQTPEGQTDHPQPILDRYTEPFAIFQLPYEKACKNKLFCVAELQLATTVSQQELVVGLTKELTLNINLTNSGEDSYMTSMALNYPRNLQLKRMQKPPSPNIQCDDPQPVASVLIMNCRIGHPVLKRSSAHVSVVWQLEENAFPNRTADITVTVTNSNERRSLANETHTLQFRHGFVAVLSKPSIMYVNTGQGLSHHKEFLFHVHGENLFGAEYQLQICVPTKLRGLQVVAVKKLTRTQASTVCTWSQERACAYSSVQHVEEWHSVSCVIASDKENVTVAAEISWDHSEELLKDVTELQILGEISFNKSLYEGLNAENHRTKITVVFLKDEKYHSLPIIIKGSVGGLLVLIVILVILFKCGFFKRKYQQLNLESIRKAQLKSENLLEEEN
T1 sequence (P26010 20-798 limits assumed, chain 2 of 2): as the sequence (P26010 20-798 limits assumed, chain 2 of 2) above

B1: hCD103.05A (antibody, mouse IgG1, V domains shown)
VH: EVQLQQSGPELEKPGASAKISCKASGYSFTGYNMNWVKQSNGKSLEWIGNIDPYYGGTSYNQKFKGKATLTVDKSSSTAYMQLKSLTSEDSAVYYCARSFYGYDAGSPYNYAMDYWGQGTPVTVSP
VL: DIVMTQSHKFMSTSVGDRVSITCKASQDVGTFVAWYQQKPGQSPKLLIYWASTRHTGVPDRFTGSGSGTDFTLTISNVQSEDLADYFCHQYSSYPYTFGGGTQLEIK
notes: Also tested labelled with AF647, conjugated with Df and labelled with 89Zr; these are written under this molecule; also called clone 05A; hCD103.05 mAb
% binding of the fluorescently labeled mAb (IgG pre-incubation = 100) [1]: 4.2%
binding result [2]: no binding
% binding of the fluorescently labeled mAb (IgG pre-incubation = 100) [3]: 2.2%
% binding of the fluorescently labeled mAb (IgG pre-incubation = 100) [4]: 2.6%
EC50 (read off the curve) [5]: ~0.02 µg/mL
% binding of the fluorescently labeled mAb (IgG pre-incubation = 100) [6]: 4.3%
% binding of the fluorescently labeled mAb (IgG pre-incubation = 100) [7]: 100%
% binding of the fluorescently labeled mAb (IgG pre-incubation = 100) [8]: 94.6%
% binding of the fluorescently labeled mAb (IgG pre-incubation = 100) [9]: 66.3%
% binding of the fluorescently labeled mAb (IgG pre-incubation = 100) [10]: 89.7%
% binding of the fluorescently labeled mAb (IgG pre-incubation = 100) [11]: 101%

B2: hCD103.07A (antibody, mouse IgG1, V domains shown)
VH: EVQLQESGPSLVKPSQTLSLTCSVTGDSITSGYWNWIRKFPGNKLEYMGYITYSGSTYYNPSLKSRISITRDTSKNQYYLQLNSVTTEDTATYYCARNYYGSSSMDYWGQGTSVTVSS
VL: DIVMTQSQKFMSTSVADRVSVTCKASQNVGSDVAWYQQKPGQSPKSLIYSASYRYSGVPDRFTGSGSGTDFTLTISNVQSEDLAEYFCQQYNSYPSTFGGGTKLEIK
notes: also called clone 07A
% binding of the fluorescently labeled mAb (IgG pre-incubation = 100) [1]: 0.7%
binding result [2]: no binding
% binding of the fluorescently labeled mAb (IgG pre-incubation = 100) [3]: 0.7%
% binding of the fluorescently labeled mAb (IgG pre-incubation = 100) [4]: 0.7%
% binding of the fluorescently labeled mAb (IgG pre-incubation = 100) [6]: 0.5%
% binding of the fluorescently labeled mAb (IgG pre-incubation = 100) [7]: 100%
EC50 (read off the curve) [12]: ~0.01 µg/mL
% binding of the fluorescently labeled mAb (IgG pre-incubation = 100) [8]: 92%
% binding of the fluorescently labeled mAb (IgG pre-incubation = 100) [9]: 33.7%
% binding of the fluorescently labeled mAb (IgG pre-incubation = 100) [10]: 92.5%
% binding of the fluorescently labeled mAb (IgG pre-incubation = 100) [11]: 73.2%

B3: hCD103.01A (antibody, V domains shown)
VH: EVQLQESGPSLVKPSQTLSLTCSVTGDSITSGYWNWIRKFPGNKLEYMGYITYSGSTYYNPSLKSRISITRDTSKNQYYLQLNSVTTEDTATYYCTRHYYGSDAMDYWGQGTSVTVSS
VL: DIVMTQSHKFMSTSVGDRVSITCKASQDVSIAVAWYQQRPGQSPKLLIYSASYRYTGVPDRFTGSGSGTDFTFTISSVQAEDLAVYYCQQHYSTPWTFGGGTKLEIK
notes: Also tested labelled with AF647, conjugated with Df and labelled with 89Zr; these are written under this molecule; also called clone 01A; hCD103.01 mAb
% binding of the fluorescently labeled mAb (IgG pre-incubation = 100) [1]: 2.5%
binding result [2]: no binding
% binding of the fluorescently labeled mAb (IgG pre-incubation = 100) [3]: 2.2%
% binding of the fluorescently labeled mAb (IgG pre-incubation = 100) [4]: 1.5%
EC50 (read off the curve) [5]: ~0.02 µg/mL
% binding of the fluorescently labeled mAb (IgG pre-incubation = 100) [6]: 2.3%
% binding of the fluorescently labeled mAb (IgG pre-incubation = 100) [7]: 100%
EC50 (read off the curve) [12]: ~0.02 µg/mL
% binding of the fluorescently labeled mAb (IgG pre-incubation = 100) [8]: 83.9%
% binding of the fluorescently labeled mAb (IgG pre-incubation = 100) [9]: 27.5%
% binding of the fluorescently labeled mAb (IgG pre-incubation = 100) [10]: 92.3%
% binding of the fluorescently labeled mAb (IgG pre-incubation = 100) [11]: 81.8%

B4: hCD103.06A (antibody, mouse IgG1, V domains shown)
VH: QVQLQQPGSELVRPGASVKLSCKASGYTFTSYWMHWVKQRHGQGLEWIGNIYPGSGSTNYDEKFKSKGTLTVDTSSSTAYMHLSSLTSEDSAVYYCTRGVYDNPYYFDYWGQGTTLTVSS
VL: DIQMTQSSSNLSVSLGGRVTITCKASDHINNWLAWYQQKPGNAPRVLISGATSLETGVPSRFSGSGSGKDYTLSITSLQTEDVATYYCQQYWSIPLTFGAGTKLELK
notes: also called clone 06A; hCD103.06 mAb
% binding of the fluorescently labeled mAb (IgG pre-incubation = 100) [1]: 84.9%
binding result [2]: no binding
% binding of the fluorescently labeled mAb (IgG pre-incubation = 100) [3]: 99.1%
% binding of the fluorescently labeled mAb (IgG pre-incubation = 100) [4]: 96%
EC50 (read off the curve) [5]: ~0.02 µg/mL
% binding of the fluorescently labeled mAb (IgG pre-incubation = 100) [6]: 104%
% binding of the fluorescently labeled mAb (IgG pre-incubation = 100) [7]: 100%
EC50 (read off the curve) [12]: ~0.04 µg/mL
% binding of the fluorescently labeled mAb (IgG pre-incubation = 100) [8]: 0.7%
% binding of the fluorescently labeled mAb (IgG pre-incubation = 100) [9]: 93.2%
% binding of the fluorescently labeled mAb (IgG pre-incubation = 100) [10]: 1%
% binding of the fluorescently labeled mAb (IgG pre-incubation = 100) [11]: 18.7%

Reference: patent publication US20230183354A1 (IMMIOS HOLDING B V, published 2023)
